This experiment addresses N-syndecan ectodomain IgG fusion protein (UniProt P33671 45-387, glycosylated (proteoglycan fragment with heparan sulfate chains)). Nature of the experiment: ELISA. Background: An ELISA detects its analyte on a solid surface through an enzyme-linked reagent.

Chain of N-syndecan ectodomain IgG fusion protein (P33671 45-387): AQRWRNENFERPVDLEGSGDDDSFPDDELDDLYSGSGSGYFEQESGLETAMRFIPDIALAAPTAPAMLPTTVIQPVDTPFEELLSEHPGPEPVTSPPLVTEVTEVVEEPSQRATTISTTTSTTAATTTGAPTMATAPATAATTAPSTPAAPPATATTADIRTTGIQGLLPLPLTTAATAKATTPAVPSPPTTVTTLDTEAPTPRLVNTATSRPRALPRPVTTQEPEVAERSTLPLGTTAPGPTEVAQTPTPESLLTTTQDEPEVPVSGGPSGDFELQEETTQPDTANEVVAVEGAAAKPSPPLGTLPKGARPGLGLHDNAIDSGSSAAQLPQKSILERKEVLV

B1: heparin-binding EGF-like growth factor (HB-EGF), human recombinant (ligand, UniProt Q99075 63-148, looked up)
chain: DLQEADLDLLRVTLSSKPQALATPNKEEHGKRKKKGKGLGKKRDPCLRKYKDFCIHGECKYVKELRAPSCICHPGYHGERCHGLSL
The Kd is the constant that tells how readily two partners part at equilibrium. Higher therefore signals a looser complex. B1 came in with a Kd of 15 nM.

B2: heparin-binding growth-associated molecule (HB-GAM; pleiotrophin) (ligand, UniProt P63090 33-168, looked up)
chain: GKKEKPEKKVKKSDCGEWQWSVCVPTSGDCGLGTREGTRTGAECKQTMKTQRCKIPCNWKKQFGAECKYQFQAWGECDLNTALKTRTGSLKRALHNADCQKTVTISKPCGKLTKPKPQAESKKKKKEGKKQEKMLD
Regarding B2, the Kd is 12 nM.
